tested on: Escherichia coli TOP10; test: shrunken log2 fold change of peptide-encoding DNA abundance (4.5 h post-induction vs induction); higher = less antimicrobial activity (less host growth inhibition); conditions: time post-induction: 4.5 h; library: site-saturation at positions 5, 18, 19, 20
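Further: peptides expressed intracellularly from a pBAD plasmid library in pooled LB shake-flask culture, induced with 0.3% L-arabinose, DNA abundance read by NGS, three biological replicates, DESeq2 with apeglm shrinkage.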

| Sequence | shrunken log2 fold change |
| --- | --- |
| RRIRERPPRLPRPRPRPGTTPRP | -0.433 |
| RRIRKRPPRLPRPRPRPPYIPRP | -0.69 |
| RRIRSRPPRLPRPRPRPGQCPRP | 0.0202 |
| RRIRMRPPRLPRPRPRPSRPPRP | 0.764 |
| RRIRCRPPRLPRPRPRPTHDPRP | 0.302 |
| RRIRPRPPRLPRPRPRPKSEPRP | 0.197 |
| RRIRNRPPRLPRPRPRPDMTPRP | -0.287 |
| RRIRERPPRLPRPRPRPLYSPRP | -0.54 |
| RRIRQRPPRLPRPRPRPLSQPRP | -0.0534 |
| RRIRNRPPRLPRPRPRPDEEPRP | 0.509 |
| RRIRRRPPRLPRPRPRPYWHPRP | -0.484 |
| RRIRDRPPRLPRPRPRPFSIPRP | 0.0044 |
| RRIRFRPPRLPRPRPRPCWWPRP | 0.696 |
| RRIRKRPPRLPRPRPRPDTWPRP | 0.35 |
| RRIRYRPPRLPRPRPRPAQCPRP | -0.0254 |
| RRIRPRPPRLPRPRPRPSAHPRP | -0.167 |
| RRIRWRPPRLPRPRPRPGQCPRP | 0.00553 |
| RRIRRRPPRLPRPRPRPQNYPRP | -0.304 |
| RRIRTRPPRLPRPRPRPMPPPRP | 0.0692 |
| RRIRARPPRLPRPRPRPFMYPRP | -0.225 |
| RRIRKRPPRLPRPRPRPHKYPRP | -0.448 |
| RRIRGRPPRLPRPRPRPEDTPRP | 1.58 |
| RRIRHRPPRLPRPRPRPVDCPRP | -0.0119 |
| RRIRGRPPRLPRPRPRPTKSPRP | 0.583 |
| RRIRPRPPRLPRPRPRPNAQPRP | 0.0626 |

| Sequence | shrunken log2 fold change |
| --- | --- |
| RRIRSRPPRLPRPRPRPDLPPRP | -0.246 |
| RRIRLRPPRLPRPRPRPKYFPRP | -0.269 |
| RRIRARPPRLPRPRPRPSEDPRP | 0.396 |
| RRIRERPPRLPRPRPRPPAWPRP | 0.0898 |
| RRIRSRPPRLPRPRPRPMISPRP | -0.453 |
| RRIRLRPPRLPRPRPRPGLSPRP | 0.00141 |
| RRIRGRPPRLPRPRPRPWSRPRP | -0.188 |
| RRIRWRPPRLPRPRPRPSKFPRP | -0.0435 |
| RRIRDRPPRLPRPRPRPQTDPRP | -0.0328 |
| RRIRSRPPRLPRPRPRPSAIPRP | 0.0168 |
| RRIRQRPPRLPRPRPRPGFPPRP | -0.0539 |
| RRIRERPPRLPRPRPRPMYAPRP | -0.246 |
| RRIRCRPPRLPRPRPRPQCTPRP | -0.654 |
| RRIRERPPRLPRPRPRPGGAPRP | 0.276 |
| RRIRIRPPRLPRPRPRPWQVPRP | 0.0844 |
| RRIRSRPPRLPRPRPRPLTFPRP | 0.182 |
| RRIRPRPPRLPRPRPRPCVVPRP | 1.73 |
| RRIRLRPPRLPRPRPRPHCQPRP | -0.0416 |
| RRIRIRPPRLPRPRPRPDRRPRP | -0.274 |
| RRIRFRPPRLPRPRPRPHKRPRP | 0.0127 |
| RRIRHRPPRLPRPRPRPRKGPRP | 0.236 |
| RRIRGRPPRLPRPRPRPGDWPRP | 1.34 |
| RRIRVRPPRLPRPRPRPNWEPRP | 0.104 |
| RRIRPRPPRLPRPRPRPCGHPRP | -0.0439 |
| RRIRSRPPRLPRPRPRPILHPRP | -0.159 |

| Sequence | shrunken log2 fold change |
| --- | --- |
| RRIRRRPPRLPRPRPRPMYHPRP | -0.159 |
| RRIRCRPPRLPRPRPRPSSRPRP | -0.459 |
| RRIRKRPPRLPRPRPRPRFCPRP | 0.554 |
| RRIRKRPPRLPRPRPRPDHNPRP | -0.276 |
| RRIRYRPPRLPRPRPRPMMWPRP | 0.00408 |
| RRIRQRPPRLPRPRPRPQKIPRP | -0.29 |
| RRIRKRPPRLPRPRPRPVIMPRP | 0.137 |
| RRIRWRPPRLPRPRPRPFSSPRP | -0.374 |
| RRIRFRPPRLPRPRPRPHGNPRP | -0.414 |
| RRIRKRPPRLPRPRPRPPMCPRP | 0.389 |
| RRIRYRPPRLPRPRPRPPRFPRP | 0.0549 |
| RRIRWRPPRLPRPRPRPFGAPRP | 0.197 |
| RRIRNRPPRLPRPRPRPTNCPRP | 0.143 |
| RRIRKRPPRLPRPRPRPCIQPRP | 0.0636 |
| RRIRHRPPRLPRPRPRPEAKPRP | -0.0228 |
| RRIRERPPRLPRPRPRPWCAPRP | -0.158 |
| RRIRPRPPRLPRPRPRPTRNPRP | 0.201 |
| RRIRPRPPRLPRPRPRPQRMPRP | 0.209 |
| RRIRQRPPRLPRPRPRPMHPPRP | 0.203 |
| RRIRFRPPRLPRPRPRPPDFPRP | -0.195 |
| RRIRGRPPRLPRPRPRPIMHPRP | 0.341 |
| RRIRARPPRLPRPRPRPQASPRP | 0.242 |
| RRIRQRPPRLPRPRPRPHVEPRP | -0.00703 |
| RRIRDRPPRLPRPRPRPSTSPRP | -0.115 |
| RRIRHRPPRLPRPRPRPAGSPRP | -0.0875 |

| Sequence | shrunken log2 fold change |
| --- | --- |
| RRIRERPPRLPRPRPRPEINPRP | -0.2 |
| RRIRHRPPRLPRPRPRPEGCPRP | 0.0614 |
| RRIRTRPPRLPRPRPRPDAEPRP | 0.117 |
| RRIRTRPPRLPRPRPRPLFKPRP | 1.5 |
| RRIRMRPPRLPRPRPRPLARPRP | 0.659 |
| RRIRTRPPRLPRPRPRPVKSPRP | -0.157 |
| RRIRLRPPRLPRPRPRPSQNPRP | -0.278 |
| RRIRKRPPRLPRPRPRPHIWPRP | 0.143 |
| RRIRIRPPRLPRPRPRPAETPRP | -0.0338 |
| RRIRHRPPRLPRPRPRPSHYPRP | 0.288 |
| RRIRRRPPRLPRPRPRPWWCPRP | 4.82 |
| RRIRLRPPRLPRPRPRPFGFPRP | -0.15 |
| RRIRGRPPRLPRPRPRPIEIPRP | -0.0543 |
| RRIRHRPPRLPRPRPRPPVGPRP | 0.183 |
| RRIRNRPPRLPRPRPRPHAMPRP | -0.316 |
| RRIRVRPPRLPRPRPRPQAYPRP | -0.00917 |
| RRIRIRPPRLPRPRPRPQNSPRP | -0.595 |
| RRIRYRPPRLPRPRPRPGAHPRP | -0.818 |
| RRIRCRPPRLPRPRPRPLMWPRP | -0.185 |
| RRIRPRPPRLPRPRPRPWMHPRP | 0.0123 |
| RRIRTRPPRLPRPRPRPYRMPRP | -0.128 |
| RRIRARPPRLPRPRPRPTGEPRP | 0.0455 |
| RRIRERPPRLPRPRPRPDSAPRP | -0.213 |
| RRIRWRPPRLPRPRPRPNPPPRP | 0.206 |
| RRIRARPPRLPRPRPRPTWLPRP | 0.33 |

| Sequence | shrunken log2 fold change |
| --- | --- |
| RRIRNRPPRLPRPRPRPGDCPRP | 0.404 |
| RRIRCRPPRLPRPRPRPCYTPRP | -0.397 |
| RRIRTRPPRLPRPRPRPCTTPRP | -0.0816 |
| RRIRRRPPRLPRPRPRPDHPPRP | 0.0778 |
| RRIRPRPPRLPRPRPRPDPNPRP | -0.133 |
| RRIRKRPPRLPRPRPRPKCKPRP | 0.545 |
| RRIRARPPRLPRPRPRPQVHPRP | 0.102 |
| RRIRRRPPRLPRPRPRPYFLPRP | -0.542 |
| RRIRDRPPRLPRPRPRPWYDPRP | -0.6 |
| RRIRPRPPRLPRPRPRPDQCPRP | 0.139 |
| RRIRFRPPRLPRPRPRPERWPRP | 0.462 |
| RRIRCRPPRLPRPRPRPDTPPRP | 0.0764 |
| RRIRFRPPRLPRPRPRPVNLPRP | 0.025 |
| RRIRSRPPRLPRPRPRPVVCPRP | -0.0186 |
| RRIRHRPPRLPRPRPRPETIPRP | -0.0239 |
| RRIRVRPPRLPRPRPRPLHWPRP | 0.243 |
| RRIRFRPPRLPRPRPRPHFWPRP | -0.124 |
| RRIRDRPPRLPRPRPRPQNYPRP | -0.589 |
| RRIRFRPPRLPRPRPRPCPQPRP | -0.697 |
| RRIRERPPRLPRPRPRPWIAPRP | -0.0555 |
| RRIRNRPPRLPRPRPRPKSCPRP | -0.0533 |
| RRIRGRPPRLPRPRPRPCQRPRP | 0.014 |
| RRIRDRPPRLPRPRPRPPTHPRP | 0.21 |
| RRIRMRPPRLPRPRPRPESGPRP | 0.908 |
| RRIRYRPPRLPRPRPRPPINPRP | -0.378 |

| Sequence | shrunken log2 fold change |
| --- | --- |
| RRIRKRPPRLPRPRPRPQHCPRP | -0.0588 |
| RRIRRRPPRLPRPRPRPIFYPRP | -0.0503 |
| RRIRKRPPRLPRPRPRPAKWPRP | 0.26 |
| RRIRVRPPRLPRPRPRPTSIPRP | -0.201 |
| RRIRMRPPRLPRPRPRPICGPRP | 0.237 |
| RRIRERPPRLPRPRPRPQIRPRP | 0.0242 |
| RRIRNRPPRLPRPRPRPMHCPRP | -0.0148 |
| RRIRDRPPRLPRPRPRPVPIPRP | 0.245 |
| RRIRSRPPRLPRPRPRPEQSPRP | 0.22 |
| RRIRYRPPRLPRPRPRPDPHPRP | -0.356 |
| RRIRGRPPRLPRPRPRPVYIPRP | -0.194 |
| RRIRARPPRLPRPRPRPHCWPRP | 0.17 |
| RRIRDRPPRLPRPRPRPMWYPRP | -0.0225 |
| RRIRKRPPRLPRPRPRPRMEPRP | 0.0104 |
| RRIRKRPPRLPRPRPRPMFTPRP | -0.0707 |
| RRIRYRPPRLPRPRPRPMQQPRP | -0.0118 |
| RRIRWRPPRLPRPRPRPMCIPRP | -0.102 |
| RRIRNRPPRLPRPRPRPEPYPRP | 0.0346 |
| RRIRSRPPRLPRPRPRPCSGPRP | -0.0317 |
| RRIRNRPPRLPRPRPRPQRAPRP | 0.0993 |
| RRIRSRPPRLPRPRPRPCLAPRP | 0.0253 |
| RRIRVRPPRLPRPRPRPGEMPRP | 0.329 |
| RRIRYRPPRLPRPRPRPQATPRP | -0.108 |
| RRIRCRPPRLPRPRPRPIYGPRP | -0.203 |
| RRIRGRPPRLPRPRPRPYIYPRP | -0.13 |

Source: the supplement of paper PMC9112550, “Optimization of the antimicrobial peptide Bac7 by deep mutational scanning” (BMC Biology, 2022)
